The values that follow come from patent US20120009190A1 (Amgen, published 2012).

For assay [1], the target named is mouse IL-17RA (IL-17 receptor) on ST-2 cells (mouse) (UniProt Q60943). As to the kind of experiment: cell-based or functional assay.
Assay [2] concerns the target T1, IL-17RA FN1 domain fused to the Gal4 DNA binding domain (pGBKT7) (yeast, UniProt P04386 1-147, limits assumed).
T1 construct: Only the FN1 domain was used
As to the kind of experiment: yeast two-hybrid, growth on -Leu/-Trp/-Ade. As for the experimental part:
The IL-17RA ECD, FN2, FN2/linker and FN1 domains were fused to the Ga14 DNA binding domain (BD) or activation domain (AD) in the Pgbkt7 and Pgadat7 yeast expression plasmids (BD Clontech). S. cerevisiae were transformed by standard methods, and growth on Leu-Trp-deficient plates or Leu-Trp-Ade-deficient plates was evaluated by colony counting. CARMA1 (provided by X. Lin, MD Anderson Cancer Center, Houston Tex.) was used a positive control.
To obtain the data presented Table 1, full length (FL) IL-17RA or the FN1, FN2/linker or FN2 domains were fused to the yeast Ga14 DNA binding domain (BD) or activation domain (AD) in the pGBKT7 and pGADT7 plasmids. S. cerevisiae were transformed with the indicated pairs of plasmids and growth on Leu-Trp-deficient plates (selecting for both plasmids) or Leu-Trp-Ade-deficient plates (selecting for each plasmid and an interaction) was evaluated. CARMA1 was a positive control. FL, full length. FN, fibronectin.

In assay [3] the target is T2, huIL-17.Fc (huIL17 with N-terminal flag and huFC (IgG1)) (human, UniProt Q16552 24-155).
T2 construct: also called IL-17 fused to human Fc; not shown: human IgG1 Fc (huFC)
T2 sequence (Q16552 other isoform, or with tags, fused parts or gaps limits assumed): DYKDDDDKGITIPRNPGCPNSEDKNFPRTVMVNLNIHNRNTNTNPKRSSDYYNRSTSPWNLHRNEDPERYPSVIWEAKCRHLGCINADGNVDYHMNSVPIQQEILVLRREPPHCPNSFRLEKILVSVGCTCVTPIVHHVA
As to the kind of experiment: flow cytometry, huIL-17.Fc staining with anti-huIgG-APC. How it is done:
Cells were incubated with M750 or M177 anti-mouse IL-17RA followed by anti-rat PE (BD Pharmigen). To prepare huIL-17.Fc, a cDNA encoding huIL17, N-terminal flag and huFC (IgG1) was amplified by PCR and cloned into the Pdc409 vector. Secreted IL17.Fc was purified from transfected COS cells over a Protein A column and its concentration determined using a human Fc ELISA. For binding, 293 cells were blocked with anti-human IL-17RA (M202) and stained with huIL17.Fc followed by anti-hulgG-APC (Jackson Immunoresearch, West Grove, Pa.). Data were analyzed on a FACSCalibur with Cell Quest software (BD Biosciences). FRET data were obtained from three channel images using the macro of LSM FRET tool software (Zeiss AIM software, per standard techniques). A minimum of 50 regions of interest at the membrane were assessed for each condition. FRET efficiencies were calculated by the NFRET method and significance determined by t-test.

In assay [4] the target is human IL-17RA on normal human foreskin fibroblasts (HFF) (human) (UniProt Q96F46). Description: cell-based or functional assay.

Chain of mouse IL-17RA (IL-17 receptor) on ST-2 cells (mouse) (Q60943 32-864): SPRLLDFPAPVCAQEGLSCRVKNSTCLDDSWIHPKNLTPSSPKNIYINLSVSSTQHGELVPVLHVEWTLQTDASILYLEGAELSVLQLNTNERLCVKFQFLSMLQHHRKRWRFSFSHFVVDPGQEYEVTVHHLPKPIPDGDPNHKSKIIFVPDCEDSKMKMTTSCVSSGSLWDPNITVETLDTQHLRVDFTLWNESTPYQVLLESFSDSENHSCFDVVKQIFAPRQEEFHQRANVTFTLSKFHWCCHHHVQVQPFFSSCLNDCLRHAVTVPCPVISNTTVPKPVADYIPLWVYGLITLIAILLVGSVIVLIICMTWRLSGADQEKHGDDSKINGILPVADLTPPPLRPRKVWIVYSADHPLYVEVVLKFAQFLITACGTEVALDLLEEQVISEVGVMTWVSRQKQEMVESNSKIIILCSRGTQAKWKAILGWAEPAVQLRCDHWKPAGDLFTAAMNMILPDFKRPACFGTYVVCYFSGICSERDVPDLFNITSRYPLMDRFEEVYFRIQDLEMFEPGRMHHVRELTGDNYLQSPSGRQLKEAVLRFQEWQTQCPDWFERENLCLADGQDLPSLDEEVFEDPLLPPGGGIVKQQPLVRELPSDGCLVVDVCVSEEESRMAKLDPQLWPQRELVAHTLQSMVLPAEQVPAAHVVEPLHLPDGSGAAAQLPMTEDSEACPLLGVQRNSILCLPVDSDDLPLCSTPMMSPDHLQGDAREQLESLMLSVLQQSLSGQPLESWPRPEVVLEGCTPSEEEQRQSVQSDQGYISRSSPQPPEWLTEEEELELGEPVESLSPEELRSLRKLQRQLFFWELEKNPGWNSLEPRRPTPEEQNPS

As for “muPLAD (murine PLAD construct, FN2 of mouse IL-17RA without the linker) (from UniProt Q60943 205-283) (receptor)”, in assay [1], the IL-6 (ELISA) from ST-2 cells + IL-17A 10 ng/ml, muPLAD at 3 ug/ml stood at 2240 pg/mL; the IL-6 (ELISA) from ST-2 cells + IL-17A 10 ng/ml, muPLAD at 3 ug/ml (Example 9) is 155 pg/mL; the IL-6 (ELISA) from ST-2 cells + IL-17A 10 ng/ml, muPLAD at 10 ug/ml amounted to 2530 pg/mL; the IL-6 (ELISA) from ST-2 cells + IL-17A 10 ng/ml, muPLAD at 10 ug/ml (Example 9) was 125 pg/mL. For the same molecule, in assay [1], the IL-6 (ELISA) from ST-2 cells + IL-17A 10 ng/ml, muPLAD at 30 ug/ml worked out at 2040 pg/mL; the IL-6 (ELISA) from ST-2 cells + IL-17A 10 ng/ml, muPLAD at 30 ug/ml (Example 9) came to 108 pg/mL; the IL-6 (ELISA) from ST-2 cells + IL-17A + TNFa 2 ng/ml, muPLAD at 3 ug/ml stood at 6980 pg/mL; the IL-6 (ELISA) from ST-2 cells + IL-17A + TNFa 2 ng/ml, muPLAD at 10 ug/ml is 6980 pg/mL. Besides, in assay [1], the IL-6 (ELISA) from ST-2 cells + IL-17A + TNFa 2 ng/ml, muPLAD at 30 ug/ml came out at 6980 pg/mL; the KC (Groα) (ELISA) from ST-2 cells + IL-17A 10 ng/ml, muPLAD at 3 ug/ml was 6190 pg/mL; the KC (Groα) (ELISA) from ST-2 cells + IL-17A 10 ng/ml, muPLAD at 10 ug/ml was 6130 pg/mL; the KC (Groα) (ELISA) from ST-2 cells + IL-17A 10 ng/ml, muPLAD at 30 ug/ml was 6100 pg/mL. In assay [1], the KC (Groα) (ELISA) from ST-2 cells + IL-17A + TNFa, muPLAD at 3 ug/ml was 6150 pg/mL; the KC (Groα) (ELISA) from ST-2 cells + IL-17A + TNFa, muPLAD at 10 ug/ml amounted to 6460 pg/mL; the KC (Groα) (ELISA) from ST-2 cells + IL-17A + TNFa, muPLAD at 30 ug/ml was 6300 pg/mL.

Regarding “muPLAD-L (murine PLAD/Linker construct, linker and FN2 of mouse IL-17RA) (from UniProt Q60943 184-283) (receptor)”, in assay [1], the IL-6 (ELISA) from ST-2 cells + IL-17A 10 ng/ml, muPLAD-L at 3 ug/ml came to 2710 pg/mL; the IL-6 (ELISA) from ST-2 cells + IL-17A 10 ng/ml, muPLAD-L at 3 ug/ml (Example 9) was found to be 182 pg/mL; the IL-6 (ELISA) from ST-2 cells + IL-17A 10 ng/ml, muPLAD-L at 10 ug/ml turned out to be 2790 pg/mL; the IL-6 (ELISA) from ST-2 cells + IL-17A 10 ng/ml, muPLAD-L at 10 ug/ml (Example 9) was 110 pg/mL. In addition, in assay [1], the IL-6 (ELISA) from ST-2 cells + IL-17A 10 ng/ml, muPLAD-L at 30 ug/ml was 1880 pg/mL; the IL-6 (ELISA) from ST-2 cells + IL-17A 10 ng/ml, muPLAD-L at 30 ug/ml (Example 9) was 110 pg/mL; the IL-6 (ELISA) from ST-2 cells + IL-17A + TNFa 2 ng/ml, muPLAD-L at 3 ug/ml is 7020 pg/mL; the IL-6 (ELISA) from ST-2 cells + IL-17A + TNFa 2 ng/ml, muPLAD-L at 10 ug/ml stood at 7040 pg/mL. In assay [1], the IL-6 (ELISA) from ST-2 cells + IL-17A + TNFa 2 ng/ml, muPLAD-L at 30 ug/ml was determined as 7180 pg/mL; the KC (Groα) (ELISA) from ST-2 cells + IL-17A 10 ng/ml, muPLAD-L at 3 ug/ml is 5980 pg/mL; the KC (Groα) (ELISA) from ST-2 cells + IL-17A 10 ng/ml, muPLAD-L at 10 ug/ml was 5440 pg/mL; the KC (Groα) (ELISA) from ST-2 cells + IL-17A 10 ng/ml, muPLAD-L at 30 ug/ml stood at 6230 pg/mL. In addition, in assay [1], the KC (Groα) (ELISA) from ST-2 cells + IL-17A + TNFa, muPLAD-L at 3 ug/ml worked out at 5750 pg/mL; the KC (Groα) (ELISA) from ST-2 cells + IL-17A + TNFa, muPLAD-L at 10 ug/ml is 5550 pg/mL; the KC (Groα) (ELISA) from ST-2 cells + IL-17A + TNFa, muPLAD-L at 30 ug/ml worked out at 5500 pg/mL.

B1: IL-17RA FN1 domain fused to the Gal4 activation domain (pGADT7) (other, not shown: large carriers)
chain: TPSSPKNIYINLSVSSTQHGELVPVLHVEWTLQTDASILYLEGAELSVLQLNTNERLCVKFQFLSMLQHHRKRWRFSFSHFVVDPGQEYEVTVHHLPKPIPDGDPNHKSKIIFVP
notes: Only the FN1 domain was used; Species is inferred as mouse
In the case of B1, the binding result in assay [2] is on record as “no binding”.

B2: FN2 domain construct of IL-17RA (lacking FN1 and the linker), expressed on cells (receptor)
chain: PNITVETLDTQHLRVDFTLWNESTPYQVLLESFSDSENHSCFDVVKQIFAPRQEEFHQRANVTFTLSKFHWCCHHHVQV
notes: not shown: transmembrane region, cytoplasmic part and any tag of the construct
For the molecule B2, the binding result in assay [3] was “no binding”.

B3: IL-17R PLAD-LINKER-GSS-FH (recombinant human IL-17R PLAD-linker, first generation construct) (receptor)
chain: DCEHARMKVTTPCMSSGSLWDPNITVETLEAHQLRVSFTLWNESTHYQILLTSFPHMENHSCFEHMHHIPAPRPEEFHQRSNVTLTLRNLKGCCRHQVQ
Take B3: in assay [4], the GROα (ELISA) from HFF + 5 ng/mL huIL-17A, IL-17R PLAD-LINKER-GSS-FH at 0.032 ug/mL stood at 437 pg/mL; the GROα (ELISA) from HFF + 5 ng/mL huIL-17A, IL-17R PLAD-LINKER-GSS-FH at 0.16 ug/mL was determined as 541 pg/mL; the GROα (ELISA) from HFF + 5 ng/mL huIL-17A, IL-17R PLAD-LINKER-GSS-FH at 0.8 ug/mL came to 460 pg/mL; the GROα (ELISA) from HFF + 5 ng/mL huIL-17A, IL-17R PLAD-LINKER-GSS-FH at 4 ug/mL turned out to be 381 pg/mL. In assay [4], the GROα (ELISA) from HFF + 5 ng/mL huIL-17A, IL-17R PLAD-LINKER-GSS-FH at 20 ug/mL turned out to be 310 pg/mL and the GROα (ELISA) from HFF + 5 ng/mL huIL-17A, IL-17R PLAD-LINKER-GSS-FH at 100 ug/mL amounted to 315 pg/mL.

B4: IL-17R PLAD-GSS-FH (recombinant human IL-17R PLAD without the linker, first generation construct) (receptor)
chain: PNITVETLEAHQLRVSFTLWNESTHYQILLTSFPHMENHSCFEHMHHIPAPRPEEFHQRSNVTLTLRNLKGCCRHQVQ
On to B4, for which, in assay [4], the GROα (ELISA) from HFF + 5 ng/mL huIL-17A, IL-17R PLAD-GSS-FH at 0.032 ug/mL worked out at 460 pg/mL; the GROα (ELISA) from HFF + 5 ng/mL huIL-17A, IL-17R PLAD-GSS-FH at 0.16 ug/mL was determined as 463 pg/mL; the GROα (ELISA) from HFF + 5 ng/mL huIL-17A, IL-17R PLAD-GSS-FH at 0.8 ug/mL is 471 pg/mL; the GROα (ELISA) from HFF + 5 ng/mL huIL-17A, IL-17R PLAD-GSS-FH at 4 ug/mL worked out at 420 pg/mL. Besides, in assay [4], the GROα (ELISA) from HFF + 5 ng/mL huIL-17A, IL-17R PLAD-GSS-FH at 20 ug/mL was found to be 363 pg/mL and the GROα (ELISA) from HFF + 5 ng/mL huIL-17A, IL-17R PLAD-GSS-FH at 100 ug/mL was found to be 300 pg/mL.

B5: IL-17R PLAD-mod-GSS-FH (recombinant human IL-17R PLAD without the linker, second generation construct) (receptor)
chain: PNITVETLEAHQLRVSFTLWNESTHYQILLTSFPHMENHSCFEHMHHIPAPRPEEFHQRSNVTLTLRNLKGCCRHQVQIQPFFSSCLNDCLRHSATVSCPEMPDTPEPIPDGSSDYKDDDDKGSSHHHHHH
B5: in assay [4], the GROα (ELISA) from HFF + 5 ng/mL huIL-17A, IL-17R PLAD-mod-GSS-FH at 0.032 ug/mL is 467 pg/mL; the GROα (ELISA) from HFF + 5 ng/mL huIL-17A, IL-17R PLAD-mod-GSS-FH at 0.16 ug/mL is 486 pg/mL; the GROα (ELISA) from HFF + 5 ng/mL huIL-17A, IL-17R PLAD-mod-GSS-FH at 0.8 ug/mL is 484 pg/mL; the GROα (ELISA) from HFF + 5 ng/mL huIL-17A, IL-17R PLAD-mod-GSS-FH at 4 ug/mL amounted to 499 pg/mL. In addition, in assay [4], the GROα (ELISA) from HFF + 5 ng/mL huIL-17A, IL-17R PLAD-mod-GSS-FH at 20 ug/mL came to 440 pg/mL and the GROα (ELISA) from HFF + 5 ng/mL huIL-17A, IL-17R PLAD-mod-GSS-FH at 100 ug/mL is 411 pg/mL.
